Data: publication PMC2572630

Biological target: Flag-tagged mR3-3 c-Myb (chicken) (UniProt P01103)
Test: protein chromatin immunoprecipitation (PChIP); 293T cells fixed with 1% formaldehyde, lysate sonicated to chromatin fragments of 100-300 bp, anti-Flag M2 agarose, washes up to 500 mM NaCl and 500 mM LiCl, histones detected by western blot

Chain of UniProt P01103 (P01103 other isoform, or with tags, fused parts or gaps): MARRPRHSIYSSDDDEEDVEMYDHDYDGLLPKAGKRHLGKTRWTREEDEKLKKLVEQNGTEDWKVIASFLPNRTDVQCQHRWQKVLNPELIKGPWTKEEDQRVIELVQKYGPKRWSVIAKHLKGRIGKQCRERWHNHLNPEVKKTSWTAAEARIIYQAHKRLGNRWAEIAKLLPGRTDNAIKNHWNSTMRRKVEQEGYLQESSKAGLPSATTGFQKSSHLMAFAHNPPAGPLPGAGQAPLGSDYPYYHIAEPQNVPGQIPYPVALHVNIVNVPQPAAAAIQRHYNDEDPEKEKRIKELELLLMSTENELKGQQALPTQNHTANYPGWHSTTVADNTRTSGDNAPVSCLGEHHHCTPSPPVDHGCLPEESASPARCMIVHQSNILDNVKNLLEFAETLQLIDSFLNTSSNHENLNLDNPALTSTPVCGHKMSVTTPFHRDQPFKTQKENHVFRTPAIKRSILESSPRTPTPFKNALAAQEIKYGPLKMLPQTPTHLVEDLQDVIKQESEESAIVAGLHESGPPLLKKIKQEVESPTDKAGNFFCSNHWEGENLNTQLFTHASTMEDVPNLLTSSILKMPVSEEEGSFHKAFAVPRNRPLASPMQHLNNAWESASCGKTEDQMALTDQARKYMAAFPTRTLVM

percent decrease in association against wild-type c-Myb [%]	Substance
50	histone H3 (from UniProt P68431 1-136) (natural protein)
50	histone H2A (from UniProt P0C0S8 1-130) (natural protein)
50	histone H4 (from UniProt P62805 1-103) (natural protein)
